{
  "source": "paper PMC3912051",
  "about": "“The B-Subdomain of the Xenopus laevis XFIN KRAB-AB Domain Is Responsible for Its Weaker Transcriptional Repressor Activity Compared to Human ZNF10/Kox1” (PLoS ONE, 2014)",
  "binders": {"B1": {"name": "GST-ZNF10-KRAB-AB (KRAB-AB domain of human ZNF10/Kox1 fused to glutathione S-transferase) (domain or fragment)", "chain": "not shown"}},
  "biological_target": "TRIM28 (endogenous human TRIM28 protein) (human (endogenous in HeLa), UniProt Q13263 1-835)",
  "sequence (Q13263 whole entry, the tested form may be a part)": "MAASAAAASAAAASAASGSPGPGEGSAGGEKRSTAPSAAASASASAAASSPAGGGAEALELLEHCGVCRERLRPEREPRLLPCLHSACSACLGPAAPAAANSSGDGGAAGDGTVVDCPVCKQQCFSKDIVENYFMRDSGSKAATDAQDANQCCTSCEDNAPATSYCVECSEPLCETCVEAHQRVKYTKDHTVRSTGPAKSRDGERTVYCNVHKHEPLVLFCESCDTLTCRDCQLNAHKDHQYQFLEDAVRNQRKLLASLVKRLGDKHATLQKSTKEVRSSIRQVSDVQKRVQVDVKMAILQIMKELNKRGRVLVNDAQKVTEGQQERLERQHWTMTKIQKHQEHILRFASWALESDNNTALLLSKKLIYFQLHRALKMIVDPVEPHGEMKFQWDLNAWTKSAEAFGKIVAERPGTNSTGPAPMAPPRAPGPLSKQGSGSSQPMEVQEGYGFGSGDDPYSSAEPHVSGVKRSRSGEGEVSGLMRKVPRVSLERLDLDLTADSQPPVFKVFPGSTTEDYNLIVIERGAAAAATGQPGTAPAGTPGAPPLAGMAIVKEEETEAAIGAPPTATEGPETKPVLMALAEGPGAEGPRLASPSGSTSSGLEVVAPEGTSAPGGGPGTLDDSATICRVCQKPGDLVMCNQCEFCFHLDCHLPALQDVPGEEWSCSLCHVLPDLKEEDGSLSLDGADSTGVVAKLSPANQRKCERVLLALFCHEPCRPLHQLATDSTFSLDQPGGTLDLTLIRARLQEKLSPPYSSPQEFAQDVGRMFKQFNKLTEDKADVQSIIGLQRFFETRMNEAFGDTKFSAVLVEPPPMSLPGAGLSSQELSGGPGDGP",
  "assay": "cell-based or functional assay",
  "data": [
    {"binder": "B1", "values": [
      {"measurement": "fold repression of a Gal4-site luciferase reporter by Gal4-ZNF10-KRAB-AB in EPC fish cells with co-transfected human TRIM28 (negligible without it)", "result": "~2", "unit": "fold"}
    ]}
  ]
}
